Test results from patent US20050182242A1, “Global analysis of protein activities using proteome chips” (priority 2001, published 2005).

Tests used:
[1] = target: T1, Cy3-labeled streptavidin (Streptomyces avidinii, UniProt P22629); test: Yeast proteome chip probed with Cy3-labeled streptavidin alone; format: binding
T1 construct: purchased Jackson IR, USA
Description: To test for protein-protein interactions, the yeast proteome was probed with calmodulin (11). Calmodulin is a highly conserved calcium-binding protein involved in many calcium-regulated cellular processes and has many known physical partners (Hook et al., 2001, Annu. Rev. Pharmacol. Toxicol. 41:471). The calmodulin probe was biotinylated, and bound probe was detected using Cy3-labeled streptavidin. As a control, the yeast proteome was probed with Cy3-labeled streptavidin alone.
In addition to the calmodulin-binding targets, one protein, Pyc1p, which bound Cy3 -labeled streptavidin, was also identified. Pyc1p encodes a pyruvate carboxylase 1 homolog that contains a highly conserved biotin-attachment region (Menendez et al., 1998, Yeast 14:647). Thus, as predicted by its sequence, Pyc1p is biotinylated in vivo; and was identified in all experiments using streptavidin detection methods. Thus, proteome microarrays can be used to identify posttranslational modifications of proteins.

[2] = test system: phospholipids (phosphatidylinositols vs phosphatidylcholine); test: Proteome chip lipid-binding screen, overall analysis of six liposomes (PI/PC specificity); conditions: phospholipid liposome probes
Description: FIGS. 4A-4D. Analysis of the phosphatidylinositol-binding proteins. To determine the phosphatidylinositol (“PI”)-binding specificity of 150 positive proteins, their binding signals were normalized against the corresponding binding signals of phosphatidylcholine (“PC”). Based on the ratios (“PI/PC”), the proteins were grouped into four categories: (A) 30 strong and specific, (B) 43 strong and nonspecific, (C) 19 weak and specific, and (D) 58 weak and nonspecific phosphatidylinositol-binding proteins. The intensity represents the PI/PC signal ratio as shown by the scale in the figure. The column, labeled “10^n” to the right of the PI/PC binding ratios indicates the maximum binding signal intensity (open boxes) and its confidence interval (solid horizontal lines); the numbers indicate the log of the values. Boxes in the three columns to the right of the confidence interval column indicate membrane-associated proteins (“Membrane”), kinases (“Kinase”), and uncharacterized ORFs (“Unknown”), respectively.
To identify PI-binding proteins in yeast, liposomes were used as probes because the liposome provides the most relevant physiological condition to assay the interactors. Six types of liposomes were used. Each contains phosphatidylcholine (“PC”) with 1% (w/w) N-(biotinoyl)-1,2-dihexadecanoyl-sn-glycero-3-phosphoethanolamine, triethylammonium salt (biotin DHPE). The biotinylated lipid serves as a label that can be detected by Cy3-streptavidin (21). In addition to PC, the five other liposomes contain either 5% (w/w) PI(3)P, PI(4)P, PI(3,4)P2, PI(4,5)P2, or PI(3,4,5)P3 (FIG. 3A).
The protein-liposome interaction was assayed as follows. Appropriate amounts of each lipid in chloroform were mixed and dried under nitrogen. The lipid mixture was resuspended in TBS buffer by vortexing. The liposomes were created by sonication. Blocked proteome chips were washed three to five times in PBS buffer, and the extra liquid on the glass surface was removed by tapping the slides vertically on a KIMWIPE™. 200 μl of liposome solution was added to the proteome chip and immediately covered by a hydrophobic plastic cover slip (GRACE BIO-LAB™, USA). After trapped air bubbles were removed, the chip was incubated in a humidity chamber at RT for one hour. To remove the cover slip, the chip was immersed into large volume of PBS buffer (50 ml), so that the slip would float away. The chip was then moved to a second PBS bath (>50 ml) and washed 3×5 min with shaking at RT. After removing extra liquid on the surface of the chip, about 100 μl of Cy3 or Cy5 conjugated streptavidin (PIERCE™, USA; 1:2000 to 1:4000 dilution) was added to the surface and covered by a hydrophobic plastic cover slip (GRACE BIO-LABS™, USA). The chip was incubated for greater than 30 min in the dark at RT. The chip was then washed as described above. To completely remove the liquid on the chip, the chip was spun to dryness at 1500-2000 rpm for 5-10 min at RT.
An algorithm was devised to assist in the identification of positive signals (42). Fifty-two (35%) of the interactors (i.e., lipid-binding proteins) correspond to uncharacterized proteins thus ascribing the first biochemical activities to those proteins.
The interactors (i.e., phospholipid-binding proteins) were grouped in several ways (42). First, the interactors were sorted according to whether they bound lipids strongly or weakly, based on the phospholipid-binding signal relative to the amount of GST (FIG. 4). Slightly more (72%) of the strong lipid binding proteins (FIGS. 4A and 4B) were characterized relative to the weakly binding proteins (54%) (FIGS. 4C and 4D). Many of the strong lipid-binding proteins are membrane-associated, or are predicted to be associated with membranes, whereas fewer of the weaker binding proteins appear to be associated with membranes (FIG. 4, “Membrane” column). […] Moreover, thirteen of the seventeen protein kinases bind very strongly to the phospholipids. […]

[3] = test system: PI(4,5)P2 liposomes; test: Nitrocellulose membrane assay: adhered PI(4,5)P2 liposomes probed with GST fusion proteins; format: binding; conditions: dilution series, anti-GST antibodies, ECL
Description: A. PI(4,5)P2 liposomes were first adhered to a nitrocellulose membrane, which was blocked by BSA; a dilution series of Rim15p, Eno2p, and Hxk1p, and a GST control were used to probe the membrane. The bound proteins were detected using the anti-GST antibodies and an enhanced chemiluminescence (“ECL”) kit.
Therefore, six proteins, i.e., Rim15p, Eno2p, Hxk1p, Sps1p, Yg1059wp, and Gcn2p, were further tested for phosphoinositol binding using two types of standard assays (Williamson, 2000, Nat. Struct Biol. 7(10):834-7). For Rim15p, Eno2p, and Hxk1p, PI(4,5)P2 liposomes were first adhered to a nitrocellulose membrane, which was then blocked by BSA; different amounts of the GST fusion proteins and a GST control were used to probe the membrane, and bound proteins were detected using anti-GST antibodies. […] We also carried out the reverse assay for four GST fusion proteins, Rim15p, Sps1p, Yg1059wp, and Gcn2p (Guerra et al., 2000, Biosci. Rep. 20: 41). Different amounts of these purified proteins were spotted onto nitrocellulose filters and probed with the six different liposomes (FIG. 5B). The bound liposomes were detected using a horseradish peroxidase (“HRP”)-conjugated streptavidin.

T1 sequence (P22629 25-183): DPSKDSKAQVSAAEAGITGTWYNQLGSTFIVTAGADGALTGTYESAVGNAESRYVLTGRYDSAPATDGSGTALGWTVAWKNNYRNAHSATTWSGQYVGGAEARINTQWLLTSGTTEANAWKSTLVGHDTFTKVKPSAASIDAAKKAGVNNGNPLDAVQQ

| Molecule | binding of Cy3-labeled streptavidin [1] | identified as lipid-binding interactor [2] | binding to PI(4,5)P2 liposomes on membrane [3] |
| --- | --- | --- | --- |
| Pyc1p: pyruvate carboxylase 1 homolog with conserved biotin-attachment region (protein, UniProt P11154 1-1178, looked up) Pyruvate carboxylase 1: MSQRKFAGLRDNFNLLGEKNKILVANRGEIPIRIFRTAHELSMQTVAIYSHEDRLSTHKQKADEAYVIGEVGQYTPVGAYLAIDEIISIAQKHQVDFIHPGYGFLSENSEFADKVVKAGITWIGPPAEVIDSVGDKVSARNLAAKANVPTVPGTPGPIETVEEALDFVNEYGYPVIIKAAFGGGGRGMRVVREGDDVADAFQRATSEARTAFGNGTCFVERFLDKPKHIEVQLLADNHGNVVHLFERDCSVQRRHQKVVEVAPAKTLPREVRDAILTDAVKLAKECGYRNAGTAEFLVDNQNRHYFIEINPRIQVEHTITEEITGIDIVAAQIQIAAGASLPQLGLFQDKITTRGFAIQCRITTEDPAKNFQPDTGRIEVYRSAGGNGVRLDGGNAYAGTIISPHYDSMLVKCSCSGSTYEIVRRKMIRALIEFRIRGVKTNIPFLLTLLTNPVFIEGTYWTTFIDDTPQLFQMVSSQNRAQKLLHYLADVAVNGSSIKGQIGLPKLKSNPSVPHLHDAQGNVINVTKSAPPSGWRQVLLEKGPAEFARQVRQFNGTLLMDTTWRDAHQSLLATRVRTHDLATIAPTTAHALAGRFALECWGGATFDVAMRFLHEDPWERLRKLRSLVPNIPFQMLLRGANGVAYSSLPDNAIDHFVKQAKDNGVDIFRVFDALNDLEQLKVGVDAVKKAGGVVEATVCFSGDMLQPGKKYNLDYYLEIAEKIVQMGTHILGIKDMAGTMKPAAAKLLIGSLRAKYPDLPIHVHTHDSAGTAVASMTACALAGADVVDVAINSMSGLTSQPSINALLASLEGNIDTGINVEHVRELDAYWAEMRLLYSCFEADLKGPDPEVYQHEIPGGQLTNLLFQAQQLGLGEQWAETKRAYREANYLLGDIVKVTPTSKVVGDLAQFMVSNKLTSDDVRRLANSLDFPDSVMDFFEGLIGQPYGGFPEPFRSDVLRNKRRKLTCRPGLELEPFDLEKIREDLQNRFGDVDECDVASYNMYPRVYEDFQKMRETYGDLSVLPTRSFLSPLETDEEIEVVIEQGKTLIIKLQAVGDLNKKTGEREVYFDLNGEMRKIRVADRSQKVETVTKSKADMHDPLHIGAPMAGVIVEVKVHKGSLIKKGQPVAVLSAMKMEMIISSPSDGQVKEVFVSDGENVDSSDLLVLLEDQVPVETKA | bound |  |  |
| Eno2p: yeast enolase, GST fusion (protein, UniProt P00925 2-437, looked up, GST tag, yeast enolase, GST fusion) Enolase 2: AVSKVYARSVYDSRGNPTVEVELTTEKGVFRSIVPSGASTGVHEALEMRDEDKSKWMGKGVMNAVNNVNNVIAAAFVKANLDVKDQKAVDDFLLSLDGTANKSKLGANAILGVSMAAARAAAAEKNVPLYQHLADLSKSKTSPYVLPVPFLNVLNGGSHAGGALALQEFMIAPTGAKTFAEAMRIGSEVYHNLKSLTKKRYGASAGNVGDEGGVAPNIQTAEEALDLIVDAIKAAGHDGKVKIGLDCASSEFFKDGKYDLDFKNPESDKSKWLTGVELADMYHSLMKRYPIVSIEDPFAEDDWEAWSHFFKTAGIQIVADDLTVTNPARIATAIEKKAADALLLKVNQIGTLSESIKAAQDSFAANWGVMVSHRSGETEDTFIADLVVGLRTGQIKTGAPARSERLAKLNQLLRIEEELGDKAVYAGENFHHGDKL |  | identified | tightly bound PI(4,5)P2 |
| Hxk1p: yeast hexokinase, GST fusion (protein, UniProt P04806 1-485, looked up, GST tag, yeast hexokinase, GST fusion) Hexokinase-1: MVHLGPKKPQARKGSMADVPKELMDEIHQLEDMFTVDSETLRKVVKHFIDELNKGLTKKGGNIPMIPGWVMEFPTGKESGNYLAIDLGGTNLRVVLVKLSGNHTFDTTQSKYKLPHDMRTTKHQEELWSFIADSLKDFMVEQELLNTKDTLPLGFTFSYPASQNKINEGILQRWTKGFDIPNVEGHDVVPLLQNEISKRELPIEIVALINDTVGTLIASYYTDPETKMGVIFGTGVNGAFYDVVSDIEKLEGKLADDIPSNSPMAINCEYGSFDNEHLVLPRTKYDVAVDEQSPRPGQQAFEKMTSGYYLGELLRLVLLELNEKGLMLKDQDLSKLKQPYIMDTSYPARIEDDPFENLEDTDDIFQKDFGVKTTLPERKLIRRLCELIGTRAARLAVCGIAAICQKRGYKTGHIAADGSVYNKYPGFKEAAAKGLRDIYGWTGDASKDPITIVPAEDGSGAGAAVIAALSEKRIAEGKSLGIIGA |  | identified | tightly bound PI(4,5)P2 |
